Key:
KETWV peptide [1] = target: T1, KETWV peptide (synthetic construct); experiment: ITC, 21 °C
T1 chain: KETWV

KETWV peptide [2] = target: T1, KETWV peptide; experiment: intrinsic tryptophan fluorescence quenching, 21 °C

B1: PSD-95 PDZ3 302-403 (protein)
chain: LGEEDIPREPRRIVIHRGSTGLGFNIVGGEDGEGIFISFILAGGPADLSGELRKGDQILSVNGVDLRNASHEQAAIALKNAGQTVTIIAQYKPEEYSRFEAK
KETWV peptide [1]
  Kd: 25.2 µM
KETWV peptide [2]
  Kd: 24.6 µM

Reference: PMC7673989 (2020)
